In publication PMC9717613:
Numbering of substitutions follows the chain as printed. In names and notes the source's numbering stands.

Columns and labels:
[1] = substrate: Nc1ccccc1C(=O)C[C@H](N)C(=O)O; assay: purified protein; assay type: biochemical, Homo sapiens; details: 0-2 mM substrate, 0.10-1.00 uM enzyme
[2] = substrate: Nc1c(O)cccc1C(=O)CC(N)C(=O)O; assay: purified protein; details: HsKYNase_66; racemic substrate; in D2O-PBS (H2O value only in Figure 1f)

B1: HsKYNase (human kynureninase) (Homo sapiens) (protein)
chain: MEPSSLELPADTVQRIAAELKCHPTDERVALHLDEEDKLRHFRECFYIPKIQDLPPVDLSLVNKDENAIYFLGNSLGLQPKMVKTYLEEELDKWAKIAAYGHEVGKRPWITGDESIVGLMKDIVGANEKEIALMNALTVNLHLLMLSFFKPTPKRYKILLEAKAFPSDHYAIESQLQLHGLNIEESMRMIKPREGEETLRIEDILEVIEKEGDSIAVILFSGVHFYTGQHFNIPAITKAGQAKGCYVGFDLAHAVGNVELYLHDWGVDFACWCSYKYLNAGAGGIAGAFIHEKHAHTIKPALVGWFGHELSTRFKMDNKLQLIPGVCGFRISNPPILLVCSLHASLEIFKQATMKALRKKSVLLTGYLEYLIKHNYGKDKAATKKPVVNIITPSHVEERGCQLTITFSVPNKDVFQELEKRGVVCDKRNPNGIRVAPVPLYNSFHDVYKFTNLLTSILDSAETKN
Work on B1 yielded a Km [1] of 1570 µM, a kcat [1] of 0.18 s⁻¹ and a kcat/Km [1] of 110 M⁻¹ s⁻¹.

B2: HsKYNase (human kynureninase) (Homo sapiens; E103Q/F225Y/I331V/I405L/L72N/M189I/N67D/S274G/S408N) (protein)
chain: B1 chain with N67D, L72N, E103Q, M189I, F225Y, S274G, I331V, I405L, S408N
For B2, the Km ([1]; HsKYNase_46) was 190 µM, the kcat ([1]; HsKYNase_46) was 0.58 s⁻¹ and the kcat/Km ([1]; HsKYNase_46) was 3100 M⁻¹ s⁻¹.

B3: HsKYNase (human kynureninase) (Homo sapiens; … (protein)
chain: MEPSSLELPADTVQRIAAELKCHPTDERVALHLDEEDKLRHFRECFYIPKIQDLPPVDLSLVNKDEDAIYFNGNSLGLQPKMVKTYLEEELDKWAKIAIYGWFEGDSPWIHYDESIVGLMKDIVGANEKEIVLMNTLTVNLHLLMLSFFKPTPKRYKILLEAKAFPSDHYAIESQLQLHGLNIEESMRIIKPREGEETLRIEDILEVIEKEGDSIAVILFSGIHYYTGQHFNIPAITKAGQAKGCYVGFDLAHAVGNVELYLHDWGVDFACWCGYKYLNSSPGGIAGAFIHEKHAHTIKPALVGWFGHELSTRFKMDNKLQLIPGVCGFRCSTPPILLVCILHASLEIFKQATMKALRKKSVLLTGYLEYLIKHNYGKDKAATKKPVVNIITPSHVEERGCQLTLTFNVPNKDVFQELEKRGVVCDKRNPNGIRVAPVPLYNSFHDVYKFTNLLTSILDSAETKN
In the case of B3, the Km ([1]; HsKYNase_66) is reported as 27 µM, the kcat ([1]; HsKYNase_66) is reported as 1.54 s⁻¹ and the kcat/Km ([1]; HsKYNase_66) is reported as 56000 M⁻¹ s⁻¹. It also gave a Km [2] of 1370 ± 200 µM.

B4: HsKYNase (human kynureninase) (Homo sapiens; A136T/A99I/E103F/F225Y/H102W/I110M/I331C/I405L/K106E/L72N/M189I/N333T/N67D/R107S/S274G/S341I/S408N/V104E) (protein)
chain: B3 chain with D106E, I110M, H111T, Y112G, V132A, I223V, S280A, S281G, P282A
In the case of B4, the Km ([1]; HsKYNase_64) is reported as 36 µM, the kcat ([1]; HsKYNase_64) is reported as 0.24 s⁻¹ and the kcat/Km ([1]; HsKYNase_64) is reported as 6700 M⁻¹ s⁻¹.

B5: HsKYNase (human kynureninase) (Homo sapiens; … (protein)
chain: B3 chain with A68T, I110L, V132A, I223V, G274N, F306W
B5 was tested, and the Km ([1]; HsKYNase_95) was 16 µM, the kcat ([1]; HsKYNase_95) was 0.85 s⁻¹ and the kcat/Km ([1]; HsKYNase_95) was 55000 M⁻¹ s⁻¹.
